# Test results published in the DeepSol protein solubility set.
# Assay: soluble on expression in E. coli; label from the status in PepcDB or PDB records
row,Sequence,soluble on expression in E. coli
1,MSLDKWEMERTDITMKHKLGGGQFGEVYEGVWKKYSLTVAVKTLKEDTMEVEEFLKEAAVMKEIKHPNLVQLLGVCTREPPFYIITEFMTYGNLLDYLRECNRQEVSAVVLLYMATQISSAMEYLEKKNFIHRDLAARNCLVGENHLVKVADFGLSRLMTGDTYTAHAGAKFPIKWTAPESLAYNKFSIKSDVWAFGVLLWEIATYGMSPYPGIDPSQVYELLEKDYRMERPEGCPEKVYELMRACWQWNPSDRPSFAEIHQAFETMFQESSISDEVEKELGKRGEGHHHHHH,soluble
2,MERNMKNKNKMLDLMLEAVNNIKDAMPKMQIGAPVRQNIDAGERPCLQGYYTAAELKPVLDRPPQDSNAPGASGKAFKTTNLSVEEQKEKERGEAKHCFNAFASDRISLHRDLGPDTRPPEYVEEYLLFILYHQALQGREG,not soluble
3,MISAFDIFKIGIGPSSSHTVGPMNAGKCFIDRLIDSGDLPRTTRITVDLYGSLSLTGKGHATDTAVIMGLAGNTPQDVNIDSIPAFIQEVARSSRLSVAGGAHVVDFPVADSIFFHAETLARHENGMRITAWNGQAPLLHKTYYSIGGGFIVEEERFGQSHDVEKSVPYDFHSASELLTLCERQGLSVSGLMMQNELALRSKEQIDAGFARIWQVMATGIERGMNTEGVLPGPLNVPRRAVALRRLLVSSDNLSRDPMNVIDWINMFALAVSEENAAGGRVVTAPTNGACGIIPAVLAYYDKFRRPVNANSIARYLLSAGAIGMLYKMNASISGAEVGCQGEVGVACSMAAAGLTELLGGSPAQVCIAAEIAMEHNLGLTCDPVAGQVQIPCIERNAINAVKAVNAARMALRRTSEPRVSLDKVIETMYETGKDMNDKYRETSRGGLAIKVVCG,not soluble
4,MGSDKIHHHHHHMIIHEITEECFKKYGKVIDSIDLTELVSTMQTVEIPADVVYEPSISALEKLKCATELQQKTYGELPIQIGWCIGNNHKLNAVEYHRCSEVNIAATDAILILGRQQDISVENTYDTSLMEAFRIPSGTAVELYATTLHYAPCNASAGGFLVAVVLPKGTNEALEHPHTGGEDALLAAKNKWLIGHPEGGLPDGSYIGLTGENLEIK,not soluble
5,MGIPSDFSNTGLTGFNVSSTKLVKIEQQYKGVKGKKFISPGGGKFVRIDDPGAVDSNGLRTADASNTSISLETGNTWLPRLHADGTLTCGGKCAWLECTNVTIPKNKRLWFRYAFLRFSSLPADSFSVLLCFPNDDTSVPPLPPYWICSVKELQENRGNINQTDWTECFVEIDKNADFHGTLRWVVATGHNLADQNSIPDNTRFTRPGCLLIDAIDIR,not soluble
6,MAKRKAEDTQSDKMATAEKVAQNDYTIGLVDPVKDYQKLIETRVQVDEIVDDDVTKENFDRTAAAARDVIWRLLFDEAGTSQSNTEKASQLLEEYRGDACFYDPTPYNEWIVKLRDEVLKKELLDFWRDVLVKKQLGPCWSRDSDLFDSDDTPPLEFYAHAGCTAPFAASLKVRAALEEQASLDQDGPATPTTPGELSADDAAALSGEFEATLTKENPLEEYRTLMKRFVLTKIIVPDSVHQASVKKIAAAAREIIWKLLFDGTPSAEDQNKAAELLQEYKGDAGFYGPDDYNSWIFNLRDEVLTKELLDFWRDKMVKMELGPSCARDSDYYDNEDPLPFEFYEKAGCKAPFEGPVNDD,soluble
7,MGSDKIHHHHHHMQVTEQMKLDLARDGAFVARGLFSPEGLKRMREAFDYGIEHPSPQHGYIFKGTPDEHFNDYGNIANRDVHIATIKALVLDEFVASLWDSQHVWFKGEEIFIKKGGKAGRSPWHQDNSYTPVSGPQMLNIWTCFERIPRKNALEVVRGSHLGIQYNGNSYTDPGKPTKPLWLNTDWPDLPDIEAERAKDPNSWDVLSWDLELGDALVFHSGALHGGAPVSADCPDRHTLVYRFFGDKLFYRPLPTGGCNYPYDISALNDPSLMPGEPFRAAWCTQLR,not soluble
8,MSVEEEKGLLARADEFLQAFKKGAEFTQELLRENERLRFRTLQLEADQKGEGVAAALAVENRKLAARVEELEREIAEIIGQIRQIEAENNDFAARYVEIEEENNNLANLYIASYQLHSTLDFSEVLQIITEIIINLIGAEEFAVMLVDEKTGSLDAVAAEGISLEELPRVRLGEGVIGIAAGTGENYFAEGPETYERDLLRPMVCIPLKIKEHVIGVIAIYKLLIQKKSFASVDYELFTLLAGHAATAIFSSRIYSDSERKLSTMQGFINLLTT,not soluble
9,MGSDKIHHHHHHMSEITTLQPSLLWKWFDQICAIPHPSHYEDTLANFIVNWAKEKHFFVERDEVGNVLIRKPATKGMENHTPVVLQAHLDMVPQANEGNPHDFTKDPIQPYIDGEWVKARGTTLGSDNGIGLASTLAVLESNDLAHPPLEVLLTMTEETGMDGAKGLRHNWLQSEILINTDTEEIGEIYIGCAGGINANFEIPVQYETNTFEHSAQITLKGLRGGHSGGDIHTGRANAIKVLARVLAKLSQNQPHFALSEIRGGSIRNAIPREAAAVLAFNGDVKTIESAVENLAVVLKEELAIAEPNFTLFVESAEKAPTVFTAQSTQTVINALNVLPNGVIRNSDVVKNVVESSLSVGVLKTEGNVVKSTILVRSLIESGKYYVTEMLSSLAILANAKVEFSAPYPGWQPVNDSTILDVTRKHYAEVLGEQPVVKVIHAGLECGLLKEHYPNIEMISVGPTIRNAHSPDEKVEIATVQTYWDLLTRVLADIPAK,not soluble
10,MSRVVLNVDSYEGNDTPSAEIARFVVLYGKASTRKHKIWEGDGLLVCFTDSCLLKSEDERDVICRSSALKGLDQLEDGRIINIGSWSVEIQERIATGPPQKPISAQKPEIQSPMPPMTPGNSENVENRKRGGFSSPFLGIELPKPLSKRSATFVPPLIGSESSSSGGSSSSTIQEKIPPFILNEQDILDRKTTSAVTVDTRFARHLRPHQKSGIQFIFDRLRRGSGKNGGGGGAILADDMGLGKSLQTMAATWALLKGSKTAQQLANSCLIIVPSSLVNNWKAEFDKWWRLMRFPAVIALTANDITTYQSTIKLMPYLVISYDLAQRHVEKLKIIRFDVMVCDEGHKLKNLDGKLRKTLLSLEIPRRLILTGTPMQNDFEEFYSLLDFVRPSVFGSIVEFRKMCSDRPEQLNELIDECMLRRTAADVDLKHLPEKHEYILFCAASPIQKHVHSEICDYMTGDALSLIFFARQLANHPKLLLDNLREKTEKSKAHKHSPLLLAFDGAHMPRGGVKESGKLTALVDMIKCFRLLQECTVIVSNYIETLDMIQQLCEYLNFKVLRLDGKTQVPDRQKLVRTFNDHRDPSNIFLLSTKAGGVGLNLIGASRLVLFDSDWNPANDQQAMARIWRDGQVRPCHIYRLITTGTIEEKMLQRQIKKTGLGCVIDAIEVGDTIATFTDEDLKDIFTFTGSATECNTHDLCECPCDGCGMLENEMDEEDDGDDVVENDAEKIDKSGKIDKIDSDDDEEADDEELEADVTDEVVEDSQEPPEATKPAVAAAGLRTIASLAELSRWRHFSPRHADTWHHFMTNAGLSQVDTDVELTFAFYQESQY,not soluble
11,SFKADLGTIGIQLHTTYSRRIRKVKVMDNRKEPPFFNEDNVGPFYFKLPFYDPMELFIETLTGTCFELRVSPFEAVISVKGKIQRLEGIPICQQHLIWNNMELEDDYCLNDYNISEGCTLKLVLAMRGGPISTRKVPVEDPLRELAEYMDSSRDEVWEKTSCNKQVTFLVYREGDQLNFFRVVDRGDGTLTPLSESLSGGSVYNLYTDEDEETEPSPSGQQIIENSITMNKMKLLKAKMENMNLSKKVKPLAVRQAFL,soluble
12,MGSDKIHHHHHHMRKWLLGVTAALALTALAACGTESSSTSGEEDQDVTIGYFPNLDHAAAIVGKEKGFFAEELGEEKVEFTHFPNGNDFIEALSTGSIDIGYVGPGPAINYYLTGGDVVVLGSAANGATLIVARDGSGIDTLDDFDGKSFCTPGNGCTHNVQLEIMLKELGLESNRVGGTVEHQSRIAPSNMVAMFEQGQIDAAAAPEPWGTYLVEELGAHVVAEWNDVFLGEELASVVVVTTREFLENHPEQVEAFLRAHVKSVEFAQEDVDATLETVNDALFDLTQNRLPEDVLYKAWERMAVTTDTYPDALQAWADASYELKFMDEDPNLDGFVDTSLLDSILSE,not soluble
13,MKRQLILEDGSFFVGEAFGSLKETTGEVVFNTGMTGYQEILTDPSYCGQIVTMTYPLIGNYGINRDDFEAIRPHVHGFIVKEACVKPSNWRGELTLDEYLKEKDIPGLAGIDTRKLTRLIRQYGTLKGMICGLDVDPVEAAAKLRAMEWPRDQVRRVSTKSAYPSPGRGERIVLIDFGMKHGILRELNKRNCDVIVLPYNATAEEVLGWHPDGVMLSNGPGDPKDVPEAIEMIRGILGKVPLFGICLGHQLFALACGANTEKMKFGHRGSNHPVKDLRTGKVAITSQNHGYTVTHESLSGTRLEVTHIALNDGTVEGLRHLDVPAFTVQYHPEASPGPEDANPLFDEFLALIREFNKKGEVIHA,soluble
